B1: CTGF: Human recombinant connective tissue growth factor, Peprotech cat #120-19, identified in NCCM (protein, UniProt P29279 27-349, looked up)
CCN family member 2: QNCSGPCRCPDEPAPRCPAGVSLVLDGCGCCRVCAKQLGELCTERDPCDPHKGLFCHFGSPANRKIGVCTAKDGAPCIFGGTVYRSGESFQSSCKYQCTCLDGAVGCMPLCSMDVRLPSPDCPFPRRVKLPGKCCEEWVCDEPKDQTVVGPALAAYRLEDTFGPDPTMIRANCLVQTTEWSACSKTCGMGISTRVTNDNASCRLEKQSRLCMVRPCEADLEENIKKGKKCIRTPKISKPIKFELSGCTSMKTYRAKFCGVCTDGRCCTPHRTTTLPVEFKCPDGEVMKKNMMFIKTCACHYNCPGDNDIFESLYYRKMYGDMA
B2: WISP-2: Human recombinant Wnt-inducible soluble protein 2, Peprotech, identified in NCCM (protein, UniProt O76076 24-250, looked up)
CCN family member 5: QLCPTPCTCPWPPPRCPLGVPLVLDGCGCCRVCARRLGEPCDQLHVCDASQGLVCQPGAGPGGRGALCLLAEDDSSCEVNGRLYREGETFQPHCSIRCRCEDGGFTCVPLCSEDVRLPSWDCPHPRRVEVLGKCCPEWVCGQGGGLGTQPLPAQGPQFSGLVSSLPPGVPCPEWSTAWGPCSTTCGLGMATRVSNQNRFCRLETQRRLCLSRPCPPSRGRSPQNSAF

Legend:
[1] = tested on: bovine degenerative disc NP cells; assay: MTT cell viability assay; assay type: cell-based; details: CTGF 100 ng/ml, TGFβ1 10 ng/ml, 48 hrs-72 hrs
Protocol: (§1) Nucleus pulposus cells (rat, bovine and human) were plated in 96-well flat bottom plates in order to evaluate the effect of treatment with growth factors in cell viability and proliferation assays. Rat NP cells were treated with CTGF, WISP-2 and TGFβ1 in a dose (1 ng/mL-100 ng/mL) and time dependent manner (24 hrs-96 hrs) to determine the optimum dose and time for the assessment of these growth factors on viability. Cell viability was determined using 3-(4,5-dimethylthiazol-2-yl)-2,5-diphenyltetrazolium bromide (MTT, Sigma-Aldrich, USA) as previously described^44. A BrdU-ELISA (colorimetric) assay (Cat #ab126556, Abcam) was used for determining the effect of treatment with CTGF or TGFβ1 on human and rat NP cells (healthy/injured) following the manufacturer's instructions. Briefly, NP cells were treated with CTGF or TGFβ1 alone or in combination for 48 hrs following addition of BrdU reagent O/N in each well. Incorporated BrdU in DNA of proliferating cells was determined using anti-BrdU antibody and quantified by ELISA as per the manufacturer's instructions.

[2] = tested on: rat-tail disc NP cells (healthy/injured); assay: MTT cell viability assay; assay type: cell-based; details: CTGF 100 ng/ml, TGFβ1 10 ng/ml, 48 hrs-72 hrs
Protocol: as §1

rat NP cells = assay: Western blotting of rat NP cells treated with IL-1β/TNFα with or without inhibitors or growth factors; assay type: cell-based; details: rat-tail NP cells treated with IL-1β and TNFα, Western blot, FIG. 5g-5h
Protocol: After euthanasia, healthy rat lumbar/caudal spine IVDs, injured tail discs and bovine caudal IVD NPs were removed aseptically and the nucleus pulposus (NP) was removed separately and enzymatically digested according to methods established by the present inventors^16. Similarly, human degenerative disc NPs were enzymatically digested using Pronase (0.4%, 1 hr at 37° C.) followed by Collagenase II treatment (0.015%, O/N, 37° C.). The following day, the cells were filtered with a 70p cell strainer and cultured within a hypoxic incubator (NuAire, MN, USA) in 3.5% O2, 5% CO2, in Advanced Dulbecco's modified Eagle's medium (ADMEM) supplemented with 8% fetal bovine serum (FBS) and penicillin and streptomycin (100 U/mL). For treatments, the cells were either cultured in serum free ADMEM (no treatment controls) or treated with interleukin-1β (IL-1β, 10 ng/mL), tumor necrosis factor-alpha (TNFα, 50 ng/mL), connective tissue growth factor (CTGF, 10-100 ng/mL), Wnt-inducible soluble protein 2 (WISP2, 10-100 ng/mL) or transforming growth factor beta 1 (TGFβ1, 5-20 ng/mL) for various time points under hypoxic conditions.
Equal amounts of whole cell or tissue lysates prepared using RIPA lysis buffer were subjected to Western blotting as described earlier^18,19. Total lysates (30 μg) were resolved on 10% sodium dodecyl sulphate-polyacrylamide gels (SDS-PAGE) under reducing conditions and then proteins were electro-transferred onto polyvinyledendifluoride (PVDF) membranes (BioRad, CA). After blocking with 5% non-fat powdered milk in Tris-buffered saline (TBS, 0.1 M, pH=7.4), blots were incubated with rabbit or goat polyclonal/mouse monoclonal primary antibodies at 4° C. overnight. […] Blots were washed three times with TTBS for 15 minutes and protein bands were detected by the enhanced chemiluminescence method (BioRad, CA) on Kodak Hyperfilm.

[3] = tested on: rat-tail injured disc NPs; assay: Pre-clinical rodent needle puncture disc injury model of DDD, intra-discal injection; assay type: in vivo, Wistar rat
Protocol: 12-week old female Wistar rats (Charles River Laboratories International, Inc., MA, USA) were used in order to develop a pre-clinical rodent model of DDD and to evaluate the therapeutic potential of NCCM, CTGF and TGFβ1 in these pre-clinical rodent models. Experiments were performed in accordance with the Guide for the Care and Use of Laboratory Animals, and the experimental protocols were approved by the ethics approval board of Toronto Western Hospital, Toronto, ON, Canada. The surgical procedure was as follows: Anesthesia was achieved using isofluorane (5 L/min plus 1 L/min O2) and maintained at 3 L/min. Once deeply anaesthetized, the animal was affixed on a stereotactic procedure apparatus (Model 900, Kopf Instruments California USA) with nose cone inhalation. For animal experiments, the tail was shaved and prepped with isopropanol in a sterile manner. Fluoroscopy was used to visualize needle penetration and to ensure that the needle penetrated into the center of the NP. For disc injury, a 26-gauge (G), 35° beveled, 0.75 inches high needle (Hamilton Company, USA) mounted on a Hamilton syringe was used. The needle was advanced completely through the selected tail IVD to penetrate the full thickness inclusive of the annulus fibrosus on both sides of the disc. Confirmation of needle placement was made using fluoroscopy and maintained in position for 2 minutes, withdrawn halfway to the center of the NP and left there for 1 minute and then slowly withdrawn completely over a 1-minute period. The animals were then removed from the stereotactic apparatus and allowed to recover in a warmed cage. At the end of study period i.e. 72 hrs-10 weeks, animals were humanely euthanized using CO2 and each vertebral lumbar/caudal motion segment was dissected aseptically. IVDs were either fixed in formalin for histological analysis or the nucleus pulposus (healthy/injured) was harvested and lysed in RIPA buffer (50 mM Tris, pH=7.4, 150 mM NaCl, 1% NP-40 and protease inhibitor cocktail) for western blotting.
To determine the regenerative potential of NCCM, CTGF or TGFβ1, 4 IVDs per animal of 12 week old rats were injured using a 26G needle as described above. Four weeks post-injury, animals were randomized into groups of six and an intra-discal injection (˜8 μL) of either NCCM, CTGF (100 ng/mL) or TGFβ1 (10 ng/mL) was given under local anesthesia. For NCCM injected animals, the control group consisted of animals that received an intra-discal injection (˜8 μL) of Hybridoma culture medium only, while phosphate buffered saline (PBS, 1×, pH=7.2) served as control for CTGF and TGFβ1 injected animal groups. Six weeks later, the NPs from injured and control discs were harvested and either fixed in formalin for histological analysis or lysed in RIPA lysis buffer for western blotting. Each of this experiment was repeated independently to ensure reproducibility.
The tissues were fixed in 10% formalin and decalcified in 10% EDTA solution. The decalcified disc was initially split in the mid sagittal plane, embedded in paraffin and 5p thick sections were obtained for histological evaluation. Hemaetoxylin and eosin (H&E) and Safranin-O staining was performed to assess general morphology and proteoglycan content in these tissue sections as previously described^16. For immunohistochemistry/immunofluorescence (IF), paraffin-embedded sections (5 μm) of human degenerative disc NP, bovine NP, healthy canines (NCD) and rat (healthy/injured) discs were deparaffinized in xylene, hydrated in gradient alcohol followed by antigen retrieval in Tris-EDTA buffer (pH=9.0). The sections were incubated with hydrogen peroxide (0.3% v/v) in methanol for 15 minutes to quench the endogenous peroxidase activity, followed by blocking with 10% serum to preclude non-specific binding. Thereafter, the slides were incubated with either rabbit or goat polyclonal/mouse monoclonal primary antibodies overnight (O/N) at 4° C. […]

[4] = tested on: human degenerative disc NP cells; assay: Caspase 9 Lumi-Glo assay, cytokine induced; assay type: cell-based; details: 48 hrs
Protocol: Apoptosis induced in NP cells (rat and human) as result of treatment with pro-inflammatory cytokines (IL-1β and TNFα) was determined using Caspase 3/7 and Caspase 9 specific Lumi-Glo assays (Promega, Madison). Briefly, NP cells were plated and treated with either IL-1β alone or in combination with TNFα only or in presence of CTGF and TGFβ1 for 48 hrs, followed by addition of specific reagents for Caspase 3/7 and Caspase 9 as per the manufacturer's instructions. Cells were incubated for another 4 hrs at 37° C., and plates were read in a multi-well luminescence plate reader.

[5] = tested on: human degenerated disc NP cells; assay: MTT cell viability assay; assay type: cell-based
Protocol: as §1

[6] = rat tail injured discs, western blots, FIG. 12(b)

Row | Molecule | cell viability (MTT) [1] | cell viability (MTT) [2] | expression of MMP-3, MMP-13 and Cox2 proteins in presence of growth factor (rat NP cells) | aggrecan and collagen II (immunohistochemical analysis) ([3]; intra-discal injection four weeks following injury, 10 weeks post-injury, vs vehicle control) | histological analysis, Safranin-O staining of NP ([3]; intra-discal injection four weeks following injury, CTGF 100 ng/mL, TGFβ1 10 ng/mL, 10 weeks post-injury, vs PBS) | expression of MMP-13 and Cox2 in NP tissue lysates [3, 6] | stem cell marker Oct4 in NP tissue lysates [3, 6] | IL-1β and TNFα induced caspase 9 activity [4] | cell viability (MTT) [5]
1 | B1 | increased the viability | increased the viability | reduced expression | strong expression | healthy disc, rich in NCs | decreased expression | restoration | significant reduction | –
2 | B2 | – | no significant change | reduced expression | – | – | – | – | significant reduction | no significant change
